Assay results as given in IntAct's records for PubMed 19515790.

B1: Protein root UVB sensitive 1, chloroplastic (Arabidopsis thaliana (Mouse-ear cress)), Q7X6P3 (parent)
chain: MSCSYLLSGDASVVASRRWSDVSSRQRLFLPRQSLRQPSGSSFSRCVRLVANVNDHFSKQSLATRNCLASVFSADLGGSNGNNDNGNGGGGGGDGGGDNSDDSSFDLRYLCFLLLGLSCFFHFRLSAASAIAKDQNSDSNGDAVKETVWEVRGSKRKRLVPDFVKDEFVSEESAFELSSSLTPENLLAQCRNLLTQFLLPEGFPNSVTSDYLDYSLWRGVQGIASQISGVLATQSLLYAVGLGKGAIPTAAAINWVLKDGIGYLSKIMLSKYGRHFDVHPKGWRLFADLLENAAFGMEMLTPVFPQFFVMIGAAAGAGRSAAALIQAATRSCFNAGFASQRNFAEVIAKGEAQGMVSKSVGILLGIVVANCIGTSTSLALAAFGVVTTIHMYTNLKSYQCIQLRTLNPYRASLVFSEYLISGQAPLIKEVNDEEPLFPTVRFSNMKSPEKLQDFVLSSEAKAAAADIEERLQLGSKLSDVIHNKEEAIALFDLYRNEGYILTEHKGRFCVMLKESSTPQDMLRSLFQVNYLYWLEKNAGIEPASTYSDCKPGGRLHISLDYVRREFEHAKEDSESVGWVTEGLIARPLPTRIRLGHDRELLLSSPNSS
partner: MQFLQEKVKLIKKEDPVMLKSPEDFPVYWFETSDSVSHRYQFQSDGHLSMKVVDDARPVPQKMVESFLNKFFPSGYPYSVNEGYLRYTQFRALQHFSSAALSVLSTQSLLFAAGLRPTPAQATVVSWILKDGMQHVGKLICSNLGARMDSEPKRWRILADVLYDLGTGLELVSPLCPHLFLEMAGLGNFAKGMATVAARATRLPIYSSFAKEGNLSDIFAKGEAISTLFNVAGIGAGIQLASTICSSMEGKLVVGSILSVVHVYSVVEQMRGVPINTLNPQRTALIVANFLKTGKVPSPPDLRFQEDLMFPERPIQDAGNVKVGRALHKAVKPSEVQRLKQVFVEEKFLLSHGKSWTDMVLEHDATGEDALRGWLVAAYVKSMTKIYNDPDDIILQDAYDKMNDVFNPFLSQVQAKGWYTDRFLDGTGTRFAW

Variants of: B1
Conditions: with rus2_arath RUS2, Q9SJX7

| Variant | effect of a mutation on the interaction |
| --- | --- |
| E298G | decreasing interaction |
| N342G | decreasing interaction |

More lines, now with the values ahead:

| effect of a mutation on the interaction | Variant |
| --- | --- |
| disrupting interaction | K349G |
| disrupting interaction | K281G |
